Assay [1] concerns the target long-form human leptin receptor, OB-Rb (human) (UniProt P48357). Briefly: binding of labelled leptin to HEK293 cells stably transfected with human OB-Rb.
The target of assay [2] is T1, human leptin (SEQ ID NO:4) (human, UniProt P41159 22-167).
T1 construct: Recombinant human leptin; also called recombinant human leptin
In words: derived from the IC50 of CRP against 125I-human leptin binding to OB-Rb HEK293 cells. On the procedure:
(§1) 4. […] After 10 minute incubation at room temperature, the reaction was stopped with 100 μl 0.1% trifluoroacetic acid (TFA). The reaction mixture was immediately purified by reverse-phase HPLC. The separation employed a 5 minute isocratic step at 20% eluant B in A, followed by two consecutive 30 minute linear gradients from 20 to 50%, then from 50 to 60% eluant B in A (where eluant A is water containing 0. 1% TFA and eluant B is acetonitrile containing 0.1% TFA) at a flow rate of 1.5 ml/min. […] The incubation would last for 3 hours at 4° C. before the media was aspirated and the cells were dissolved in 0.1N NaOH for scintillation counting.

Assay [3] deals with T2, mouse leptin (mouse), P41160.
T2 chain: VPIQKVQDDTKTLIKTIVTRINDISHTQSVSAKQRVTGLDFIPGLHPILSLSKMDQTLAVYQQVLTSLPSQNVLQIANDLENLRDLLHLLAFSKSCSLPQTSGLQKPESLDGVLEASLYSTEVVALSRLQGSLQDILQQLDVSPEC
Briefly: human CRP against mouse leptin (~2 ng/ml) binding to OB-Rb HEK293 cells (FIG. 3G). The conditions noted are these: remark: other sources report otherwise.

In assay [4] the target is T1, human leptin (SEQ ID NO:4). In words: human CRP pre-incubated with 125I-human leptin (~2 ng/ml); inhibition of leptin binding to OB-Rb HEK293 cells, scintillation counting. As to the method:
as §1

Another assay concerns the target T3, rat C-reactive protein (rat, UniProt P48199 20-230).
T3 construct: also called rat CRP; rat SLIP-1
T3 sequence (looked up): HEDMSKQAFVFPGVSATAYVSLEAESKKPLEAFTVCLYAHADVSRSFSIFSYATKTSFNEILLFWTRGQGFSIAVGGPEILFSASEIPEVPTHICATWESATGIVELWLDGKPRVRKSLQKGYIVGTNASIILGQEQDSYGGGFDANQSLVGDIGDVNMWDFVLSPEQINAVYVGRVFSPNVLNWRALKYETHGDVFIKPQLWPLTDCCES
Briefly: immunoprecipitation with anti-mouse leptin, western blot with anti-CRP.

Sequence of long-form human leptin receptor, OB-Rb (human) (P48357 22-1165): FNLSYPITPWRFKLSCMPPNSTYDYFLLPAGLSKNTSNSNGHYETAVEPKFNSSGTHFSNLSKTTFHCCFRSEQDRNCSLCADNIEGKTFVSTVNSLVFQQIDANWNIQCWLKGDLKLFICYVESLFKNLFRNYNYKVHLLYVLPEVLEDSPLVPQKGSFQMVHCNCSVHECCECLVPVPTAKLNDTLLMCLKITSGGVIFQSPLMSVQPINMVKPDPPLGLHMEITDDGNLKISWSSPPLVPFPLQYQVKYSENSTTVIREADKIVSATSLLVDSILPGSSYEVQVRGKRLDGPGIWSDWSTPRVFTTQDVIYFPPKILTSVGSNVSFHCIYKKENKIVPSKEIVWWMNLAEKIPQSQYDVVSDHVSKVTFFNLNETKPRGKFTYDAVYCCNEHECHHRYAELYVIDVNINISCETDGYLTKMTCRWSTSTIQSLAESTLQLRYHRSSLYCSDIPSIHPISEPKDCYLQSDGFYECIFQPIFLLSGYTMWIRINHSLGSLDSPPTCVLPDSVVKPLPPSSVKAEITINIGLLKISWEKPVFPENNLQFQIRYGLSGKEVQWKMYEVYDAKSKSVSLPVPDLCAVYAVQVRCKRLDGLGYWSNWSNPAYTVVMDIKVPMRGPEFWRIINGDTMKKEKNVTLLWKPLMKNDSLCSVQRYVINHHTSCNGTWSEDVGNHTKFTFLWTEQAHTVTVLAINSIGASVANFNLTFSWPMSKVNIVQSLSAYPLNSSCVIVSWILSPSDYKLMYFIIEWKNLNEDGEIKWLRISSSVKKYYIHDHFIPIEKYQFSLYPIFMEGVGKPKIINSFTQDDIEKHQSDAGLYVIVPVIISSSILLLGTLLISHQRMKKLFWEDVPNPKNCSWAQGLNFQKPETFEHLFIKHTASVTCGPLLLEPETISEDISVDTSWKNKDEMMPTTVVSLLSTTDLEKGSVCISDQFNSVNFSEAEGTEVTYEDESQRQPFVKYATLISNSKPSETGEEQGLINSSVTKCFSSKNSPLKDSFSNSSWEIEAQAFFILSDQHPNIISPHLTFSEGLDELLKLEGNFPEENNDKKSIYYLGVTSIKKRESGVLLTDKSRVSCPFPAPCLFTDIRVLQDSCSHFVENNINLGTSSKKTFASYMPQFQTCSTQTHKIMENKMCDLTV

Regarding “human leptin (SEQ ID NO:4) (from UniProt P41159 22-167) (ligand)”, in assay [1], the Kd (usually the equilibrium constant for the complex coming apart) was 1 nM.

B1: human C-reactive protein (other, UniProt P02741 19-224, looked up)
chain: QTDMSRKAFVFPKESDTSYVSLKAPLTKPLKAFTVCLHFYTELSSTRGYSIFSYATKRQDNEILIFWSKDIGYSFTVGGSEILFEVPEVTVAPVHICTSWESASGIVEFWVDGKPRVRKSLKKGYTVGAEASIILGQEQDSFGGNFEGSQSLVGDIGNVNMWDFVLSPDEINTIYLGGPFSPNVLNWRALKYEVQGEVFTKPQLWP
notes: Human SLIP-1 from the leptin column was identified as human CRP; also called human CRP; CRP
B1: the “molecular ratio CRP:leptin at the IC50” value in assay [2] was 5.8 CRP:leptin (molar, CRP pentamer). Further, the IC50 (commonly the concentration needed to halve the response being measured) in assay [3] is above 64 µg/mL; in assay [4], around 0.08 µg/mL.

B2: mouse leptin (ligand, UniProt P41160 22-167, looked up)
chain: VPIQKVQDDTKTLIKTIVTRINDISHTQSVSAKQRVTGLDFIPGLHPILSLSKMDQTLAVYQQVLTSLPSQNVLQIANDLENLRDLLHLLAFSKSCSLPQTSGLQKPESLDGVLEASLYSTEVVALSRLQGSLQDILQQLDVSPEC
notes: Recombinant; also called recombinant mouse leptin; murine leptin
In the case of B2, the binding result in the assay with rat C-reactive protein was “binds”.

These data come from patent publication US20060206948A1 (UNIVERSITY OF PITTSBURGH OF THE COMMONWEALTH SYSTEM OF …, published 2006).
